Measured values published in the supplement of paper PMC12764529.
± gives the half width of the 95% confidence interval.

Experiment: folding stability dG unfold from trypsin proteolysis; higher = more stable
Summary of the method: (§1)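 Only designs with AlphaFold2 dimer inter-PAE above 15 were retained; each was a mini-protein under 80 residues with no cysteine, in a PA-tagged cDNA display construct. After digestion with trypsin and chymotrypsin and sequencing, K50 was inferred by Bayesian fitting of counts, and unfolding free energy was derived per protease or combined against a sequence-predicted unfolded-state K50 and a shared folded-state K50.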

“SAGVDGVKWNPESNEVSVEYEVNNQRVEQYIEPKPIPPVIVIPIDDIAERNPGLKDDLDENPGDWLVFPSAG [r5_958_TrROS]” and “SKEVKITIEVKEVNGKLYVVVKVEVNGKEETLVFKSLEEAKNAIAKKLGLPKEKIKIKKVEVYKVSKKDLSA [r9_909_TrROS_Hall]” are within error of each other in “folding stability dG unfold” value: 0.79 ± 0.077 kcal/mol for the first, 0.964 ± 0.16 kcal/mol for the second.

Going from “SAGDQTITIKIPNAPPGSRVQIMLFDPGKIKGFHEIDPDDPKEVEIKIELPPYTIMIYVADGNVFPIPISAG [r5_646_TrROS]” to “SAGSMSSVKKVKITTTSYDPTNGAKKETSYDVTVTTTTYPATGEITRTIYFTSTGKWKVEHLPPGAPLASAG [r14_587_JUSTAS]”, the “folding stability dG unfold” value falls from 1.94 ± 0.12 kcal/mol to 1.48 ± 0.066 kcal/mol.

Compared with “SAGGSAGGSMRTLKARITLRGPDGVEYRFEFEIPAGSAEDVVAFLKNLPVPPGWEVELEVLDESAGGSAGGS [r20_162_TrMRF]”, “SAGGSAGGSEPEEPEYILIERVEAGEKPKITITFKDGTKKEIEVKPGETILIKVPKDAKIEVESAGGSAGGS [r12_553_TrROS_Hall]” is lower in “folding stability dG unfold” value: 4.42 ± 0.16 kcal/mol for the first, 0.983 ± 0.067 kcal/mol for the second.

Compared with “SAGMKPGETITIVLPDGTKIEIKILENGEVEIVKIEKKEDGTYKITIRVKVNGKEIEKEITLPPGAKILSAG [r5_394_TrROS_Hall]”, “SAGGSAGGSAETFTLPGGYTITVEPTEGGVKVTITHPDGSKGEVELGPTEPLVVDPDGATILASAGGSAGGS [r12_281_TrMRF]” is lower in “folding stability dG unfold” value: 2.52 ± 0.11 kcal/mol for the first, 1.49 ± 0.079 kcal/mol for the second.

Going from “SAGGSAMTLEDLKDEFVVITLPDGTVVKAKVEEVDTKGPVLTILVGGKPILIPADAPVKIEIEPPKSAGGSA [r15_355_JUSTAS]” to “SAGGSAGGSAPELVKKIAEELPVPVKVEPFGNVLLVELELPNEDGEPVKLRLAIPIPPELLGSAGGSAGGSA [r18_27_TrMRF]”, the “folding stability dG unfold” value falls from 1.74 ± 0.063 kcal/mol to -0.195 ± 0.11 kcal/mol.

Going from “SAGGSAGGSAGGSMVVEYDPETGVRTTTVALPSDSVEVTTEKIDPATGEVVETVTELAASAGGSAGGSAGGS [r4_415_JUSTAS]” to “SAGGSAGGSAMKIVKIEVVENEDGEKYVKIEIELENGEKIEITLPLEELENMSLEELLKLLKSAGGSAGGSA [r18_129_TrROS_Hall]”, the “folding stability dG unfold” value rises from -0.105 ± 0.027 kcal/mol to 2.94 ± 0.18 kcal/mol.

Going from “SAGGKEVKPIKGKVKITVNGKEIEVEVKKAKIVKNKDGSYYIFIEKDGKKLLIKLKNGKLVKIEEVPSAGGS [r16_721_TrROS_Hall]” to “SAGGSWTIDIDPEKVKEVEHKRNPNGMNEHRLELPNKNGKKREVKIPMGMKSPEDALDEIRELLGKSAGGSA [r2_347_TrROS]”, the “folding stability dG unfold” value falls from 2.37 ± 0.097 kcal/mol to 0.167 ± 0.25 kcal/mol.

First: SAGGSAGGSAGSFVKGGTVYEIYKNPNTKKYTIVATPKNGKKYVFTFDSPEEAEKALKASSAGGSAGGSAGG [r11_238_TrMRF]
Second: SAGGMKTVNLTYTRYLPDKTLEEAKELAKKDLESRGLKILSLPVSREPGAGVVTVSATVEVAPPSLLSAGGS [r16_287_JUSTAS]
The “folding stability dG unfold” value of the first is lower: 1.65 ± 0.036 kcal/mol for the first, 3.67 ± 0.12 kcal/mol for the second.

With “KKKYLVLLEARPRLYEFDENGKLIREIPLLVPFIGEGNDPEKVKEAAEKLFGEEVKILEVFPLEEVEEGKIS [r1_493_TrMRF]” the “folding stability dG unfold” value was 1.85 ± 0.065 kcal/mol.

Experiment: folding stability dG unfold from chymotrypsin proteolysis; higher = more stable
Summary of the method: as §1

Going from “SAGVDGVKWNPESNEVSVEYEVNNQRVEQYIEPKPIPPVIVIPIDDIAERNPGLKDDLDENPGDWLVFPSAG [r5_958_TrROS]” to “SKEVKITIEVKEVNGKLYVVVKVEVNGKEETLVFKSLEEAKNAIAKKLGLPKEKIKIKKVEVYKVSKKDLSA [r9_909_TrROS_Hall]”, the “folding stability dG unfold” value rises from -0.332 ± 0.089 kcal/mol to 0.869 ± 0.21 kcal/mol.

Going from “SAGDQTITIKIPNAPPGSRVQIMLFDPGKIKGFHEIDPDDPKEVEIKIELPPYTIMIYVADGNVFPIPISAG [r5_646_TrROS]” to “SAGSMSSVKKVKITTTSYDPTNGAKKETSYDVTVTTTTYPATGEITRTIYFTSTGKWKVEHLPPGAPLASAG [r14_587_JUSTAS]”, the “folding stability dG unfold” value falls from 2.82 ± 0.059 kcal/mol to 2.15 ± 0.12 kcal/mol.

Going from “SAGGSAGGSMRTLKARITLRGPDGVEYRFEFEIPAGSAEDVVAFLKNLPVPPGWEVELEVLDESAGGSAGGS [r20_162_TrMRF]” to “SAGGSAGGSEPEEPEYILIERVEAGEKPKITITFKDGTKKEIEVKPGETILIKVPKDAKIEVESAGGSAGGS [r12_553_TrROS_Hall]”, the “folding stability dG unfold” value falls from 5.54 ± 0.088 kcal/mol to 1.1 ± 0.13 kcal/mol.

First: SAGMKPGETITIVLPDGTKIEIKILENGEVEIVKIEKKEDGTYKITIRVKVNGKEIEKEITLPPGAKILSAG [r5_394_TrROS_Hall]
Second: SAGGSAGGSAETFTLPGGYTITVEPTEGGVKVTITHPDGSKGEVELGPTEPLVVDPDGATILASAGGSAGGS [r12_281_TrMRF]
The “folding stability dG unfold” value of the first is higher: 2.04 ± 0.12 kcal/mol for the first, 1.66 ± 0.093 kcal/mol for the second.

First: SAGGSAMTLEDLKDEFVVITLPDGTVVKAKVEEVDTKGPVLTILVGGKPILIPADAPVKIEIEPPKSAGGSA [r15_355_JUSTAS]
Second: SAGGSAGGSAPELVKKIAEELPVPVKVEPFGNVLLVELELPNEDGEPVKLRLAIPIPPELLGSAGGSAGGSA [r18_27_TrMRF]
The “folding stability dG unfold” value of the first is higher: 1.36 ± 0.033 kcal/mol for the first, 0.909 ± 0.12 kcal/mol for the second.

Going from “SAGGSAGGSAGGSMVVEYDPETGVRTTTVALPSDSVEVTTEKIDPATGEVVETVTELAASAGGSAGGSAGGS [r4_415_JUSTAS]” to “SAGGSAGGSAMKIVKIEVVENEDGEKYVKIEIELENGEKIEITLPLEELENMSLEELLKLLKSAGGSAGGSA [r18_129_TrROS_Hall]”, the “folding stability dG unfold” value rises from 0.634 ± 0.048 kcal/mol to 3.94 ± 0.17 kcal/mol.

Compared with “SAGGKEVKPIKGKVKITVNGKEIEVEVKKAKIVKNKDGSYYIFIEKDGKKLLIKLKNGKLVKIEEVPSAGGS [r16_721_TrROS_Hall]”, “SAGGSWTIDIDPEKVKEVEHKRNPNGMNEHRLELPNKNGKKREVKIPMGMKSPEDALDEIRELLGKSAGGSA [r2_347_TrROS]” is lower in “folding stability dG unfold” value: 3.89 ± 0.042 kcal/mol for the first, 0.663 ± 0.32 kcal/mol for the second.

Going from “SAGGSAGGSAGSFVKGGTVYEIYKNPNTKKYTIVATPKNGKKYVFTFDSPEEAEKALKASSAGGSAGGSAGG [r11_238_TrMRF]” to “SAGGMKTVNLTYTRYLPDKTLEEAKELAKKDLESRGLKILSLPVSREPGAGVVTVSATVEVAPPSLLSAGGS [r16_287_JUSTAS]”, the “folding stability dG unfold” value rises from 2.64 ± 0.046 kcal/mol to 3.99 ± 0.1 kcal/mol.

For “KKKYLVLLEARPRLYEFDENGKLIREIPLLVPFIGEGNDPEKVKEAAEKLFGEEVKILEVFPLEEVEEGKIS [r1_493_TrMRF]”, the “folding stability dG unfold” value was 2.692 ± 0.017 kcal/mol.

Experiment: folding stability dG unfold (combined trypsin and chymotrypsin); higher = more stable
Summary of the method: as §1

First: SAGVDGVKWNPESNEVSVEYEVNNQRVEQYIEPKPIPPVIVIPIDDIAERNPGLKDDLDENPGDWLVFPSAG [r5_958_TrROS]
Second: SKEVKITIEVKEVNGKLYVVVKVEVNGKEETLVFKSLEEAKNAIAKKLGLPKEKIKIKKVEVYKVSKKDLSA [r9_909_TrROS_Hall]
The “folding stability dG unfold” value of the first is lower: 0.415 ± 0.09 kcal/mol for the first, 1.07 ± 0.24 kcal/mol for the second.

Going from “SAGDQTITIKIPNAPPGSRVQIMLFDPGKIKGFHEIDPDDPKEVEIKIELPPYTIMIYVADGNVFPIPISAG [r5_646_TrROS]” to “SAGSMSSVKKVKITTTSYDPTNGAKKETSYDVTVTTTTYPATGEITRTIYFTSTGKWKVEHLPPGAPLASAG [r14_587_JUSTAS]”, the “folding stability dG unfold” value falls from 2.46 ± 0.21 kcal/mol to 1.97 ± 0.14 kcal/mol.

First: SAGGSAGGSMRTLKARITLRGPDGVEYRFEFEIPAGSAEDVVAFLKNLPVPPGWEVELEVLDESAGGSAGGS [r20_162_TrMRF]
Second: SAGGSAGGSEPEEPEYILIERVEAGEKPKITITFKDGTKKEIEVKPGETILIKVPKDAKIEVESAGGSAGGS [r12_553_TrROS_Hall]
The “folding stability dG unfold” value of the first is higher: 5.44 ± 0.1 kcal/mol for the first, 0.94 ± 0.2 kcal/mol for the second.

First: SAGMKPGETITIVLPDGTKIEIKILENGEVEIVKIEKKEDGTYKITIRVKVNGKEIEKEITLPPGAKILSAG [r5_394_TrROS_Hall]
Second: SAGGSAGGSAETFTLPGGYTITVEPTEGGVKVTITHPDGSKGEVELGPTEPLVVDPDGATILASAGGSAGGS [r12_281_TrMRF]
The “folding stability dG unfold” value of the first is higher: 2.16 ± 0.27 kcal/mol for the first, 1.66 ± 0.1 kcal/mol for the second.

Compared with “SAGGSAMTLEDLKDEFVVITLPDGTVVKAKVEEVDTKGPVLTILVGGKPILIPADAPVKIEIEPPKSAGGSA [r15_355_JUSTAS]”, “SAGGSAGGSAPELVKKIAEELPVPVKVEPFGNVLLVELELPNEDGEPVKLRLAIPIPPELLGSAGGSAGGSA [r18_27_TrMRF]” is lower in “folding stability dG unfold” value: 1.53 ± 0.043 kcal/mol for the first, 0.463 ± 0.19 kcal/mol for the second.

First: SAGGSAGGSAGGSMVVEYDPETGVRTTTVALPSDSVEVTTEKIDPATGEVVETVTELAASAGGSAGGSAGGS [r4_415_JUSTAS]
Second: SAGGSAGGSAMKIVKIEVVENEDGEKYVKIEIELENGEKIEITLPLEELENMSLEELLKLLKSAGGSAGGSA [r18_129_TrROS_Hall]
The “folding stability dG unfold” value of the first is lower: 0.358 ± 0.086 kcal/mol for the first, 3.68 ± 0.12 kcal/mol for the second.

First: SAGGKEVKPIKGKVKITVNGKEIEVEVKKAKIVKNKDGSYYIFIEKDGKKLLIKLKNGKLVKIEEVPSAGGS [r16_721_TrROS_Hall]
Second: SAGGSWTIDIDPEKVKEVEHKRNPNGMNEHRLELPNKNGKKREVKIPMGMKSPEDALDEIRELLGKSAGGSA [r2_347_TrROS]
The “folding stability dG unfold” value of the first is higher: 3.42 ± 0.089 kcal/mol for the first, 0.331 ± 0.39 kcal/mol for the second.

Going from “SAGGSAGGSAGSFVKGGTVYEIYKNPNTKKYTIVATPKNGKKYVFTFDSPEEAEKALKASSAGGSAGGSAGG [r11_238_TrMRF]” to “SAGGMKTVNLTYTRYLPDKTLEEAKELAKKDLESRGLKILSLPVSREPGAGVVTVSATVEVAPPSLLSAGGS [r16_287_JUSTAS]”, the “folding stability dG unfold” value rises from 2.38 ± 0.065 kcal/mol to 3.82 ± 0.27 kcal/mol.

In the case of “KKKYLVLLEARPRLYEFDENGKLIREIPLLVPFIGEGNDPEKVKEAAEKLFGEEVKILEVFPLEEVEEGKIS [r1_493_TrMRF]”, the “folding stability dG unfold” value is reported as 2.4 ± 0.072 kcal/mol.
